Laboratory results: publication PMC12748787 (Communications Biology, 2025)
Positions count from the first letter of the chain named. Names and notes keep the numbering of the source.

T1: MBP-JPH2 MORN-Helix (mouse, UniProt Q9ET78 1-440, Δ176-273)
T1 sequence (looked up): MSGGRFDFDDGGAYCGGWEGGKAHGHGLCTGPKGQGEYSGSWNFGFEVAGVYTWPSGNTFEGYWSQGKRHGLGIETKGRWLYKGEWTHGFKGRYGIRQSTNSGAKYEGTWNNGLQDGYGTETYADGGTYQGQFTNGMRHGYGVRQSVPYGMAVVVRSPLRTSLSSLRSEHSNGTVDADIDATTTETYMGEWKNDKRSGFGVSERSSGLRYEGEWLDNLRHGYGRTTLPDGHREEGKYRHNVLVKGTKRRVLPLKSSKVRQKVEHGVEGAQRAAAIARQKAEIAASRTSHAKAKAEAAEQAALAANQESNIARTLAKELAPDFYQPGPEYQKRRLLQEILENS

T2: MBP-JPH2 NT (mouse, wild type) (mouse, UniProt Q9ET78 1-440)
T2 sequence (looked up): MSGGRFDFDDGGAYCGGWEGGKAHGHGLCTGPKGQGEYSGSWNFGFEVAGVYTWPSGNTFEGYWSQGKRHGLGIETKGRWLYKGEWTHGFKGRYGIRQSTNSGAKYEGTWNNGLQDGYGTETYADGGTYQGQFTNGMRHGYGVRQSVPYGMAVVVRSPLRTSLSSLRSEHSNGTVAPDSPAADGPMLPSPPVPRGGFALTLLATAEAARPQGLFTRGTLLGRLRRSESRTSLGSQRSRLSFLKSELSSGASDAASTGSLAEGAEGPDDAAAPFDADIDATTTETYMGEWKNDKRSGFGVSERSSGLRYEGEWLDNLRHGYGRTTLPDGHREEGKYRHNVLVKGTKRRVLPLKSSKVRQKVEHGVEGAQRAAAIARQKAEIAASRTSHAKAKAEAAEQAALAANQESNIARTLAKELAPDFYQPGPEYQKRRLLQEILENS

T3: MBP-Mus_JPH1 NT WT (mouse, UniProt Q9ET80 1-436)
T3 sequence (looked up): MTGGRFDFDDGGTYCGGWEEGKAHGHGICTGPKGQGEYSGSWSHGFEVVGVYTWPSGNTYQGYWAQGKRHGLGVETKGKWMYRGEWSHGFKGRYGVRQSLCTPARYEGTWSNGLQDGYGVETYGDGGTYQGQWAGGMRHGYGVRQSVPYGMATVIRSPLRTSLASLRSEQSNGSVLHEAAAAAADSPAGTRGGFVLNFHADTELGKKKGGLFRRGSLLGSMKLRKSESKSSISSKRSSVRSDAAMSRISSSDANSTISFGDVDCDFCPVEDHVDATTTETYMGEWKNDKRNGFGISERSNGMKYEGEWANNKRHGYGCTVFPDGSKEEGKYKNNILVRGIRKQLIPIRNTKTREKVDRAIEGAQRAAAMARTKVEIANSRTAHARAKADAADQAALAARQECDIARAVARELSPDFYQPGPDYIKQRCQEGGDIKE

T4: MBP-Mus_JPH3 NT WT (mouse, UniProt Q9ET77 1-446)
T4 sequence (looked up): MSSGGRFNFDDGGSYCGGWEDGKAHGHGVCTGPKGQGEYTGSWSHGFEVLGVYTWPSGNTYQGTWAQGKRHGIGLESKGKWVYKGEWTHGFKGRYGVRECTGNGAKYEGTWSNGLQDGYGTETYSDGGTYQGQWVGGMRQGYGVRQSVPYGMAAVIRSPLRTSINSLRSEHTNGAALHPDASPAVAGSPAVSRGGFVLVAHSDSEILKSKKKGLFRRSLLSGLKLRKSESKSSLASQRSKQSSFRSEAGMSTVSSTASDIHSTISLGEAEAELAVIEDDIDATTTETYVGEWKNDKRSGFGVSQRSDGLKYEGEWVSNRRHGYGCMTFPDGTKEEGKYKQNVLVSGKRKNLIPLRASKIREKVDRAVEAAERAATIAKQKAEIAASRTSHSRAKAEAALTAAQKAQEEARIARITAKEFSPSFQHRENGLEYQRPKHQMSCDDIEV

T5: JPH2 MORN-Helix (as used in SEC-MALS) (mouse, UniProt Q9ET78 1-440, Δ176-273)
T5 sequence (looked up): T1 sequence (looked up)

B1: JPH2 NT S165I (domain or fragment, mouse, UniProt Q9ET78 1-440, looked up)
chain: T2 sequence (looked up) with S165I
B2: JPH2 NT S165L (domain or fragment, mouse, UniProt Q9ET78 1-440, looked up)
chain: T2 sequence (looked up) with S165L
B3: MBP-JPH2 NT S165Y (domain or fragment, mouse, UniProt Q9ET78 1-440, looked up)
chain: T2 sequence (looked up) with S165Y
B4: Trx-CaV1.2 JBM (domain or fragment)
chain: not shown
B5: JPH2 NT (mouse, wild type, as used in SEC-MALS) (domain or fragment, UniProt Q9ET78 1-440, looked up)
chain: T2 sequence (looked up)
B6: CaV1.2 JBM (as used in SEC and SEC-MALS) (domain or fragment)
chain: not shown

How the values were obtained:
Trx-CaV1.2 JBM = target: B4; test: ITC
Chain of Trx-CaV1.2 JBM (Q01815 1647-1777): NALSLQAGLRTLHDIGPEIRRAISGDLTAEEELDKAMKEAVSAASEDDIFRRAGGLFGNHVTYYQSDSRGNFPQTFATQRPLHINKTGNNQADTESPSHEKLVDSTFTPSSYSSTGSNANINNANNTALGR

MBP-JPH2 MORN-Helix = target: T1, MBP-JPH2 MORN-Helix; test: ITC
[1] = target: T2, MBP-JPH2 NT (mouse, wild type); test: ITC
MBP-Mus_JPH1 NT WT = target: T3, MBP-Mus_JPH1 NT WT; test: ITC
MBP-Mus_JPH3 NT WT = target: T4, MBP-Mus_JPH3 NT WT; test: ITC
[2] = target: B6; test: SEC-MALS
[3] = target: T5, JPH2 MORN-Helix (as used in SEC-MALS); test: SEC-MALS

B1
fold decrease in affinity against the wild type (Trx-CaV1.2 JBM): 2 fold

B2
fold decrease in affinity against the wild type (Trx-CaV1.2 JBM): 2 fold

B3
fold weakening of the binding against the wild type (Trx-CaV1.2 JBM): ~3 fold

B4
binding result (MBP-JPH2 MORN-Helix): binds | Kd [1]: ~6.04 µM | Kd (MBP-Mus_JPH1 NT WT): 5.54 ± 0.71 µM | Kd (MBP-Mus_JPH3 NT WT): 5.82 ± 0.36 µM

B5
stoichiometry N [2]: 1

B6
binding result [3]: binds
